The target in assay [1] is endo-Gly0-gramicidin C. Put plainly: single-channel recording in planar lipid bilayers.
Assay [2] deals with endo-Gly0-gramicidin C. Put plainly: single-channel recording in planar lipid bilayers. This is another data set of the same source.

Where two headings read alike, the source gives them in different places.

For the substance endo-Gly0-gramicidin C (peptide), the values for the average channel duration tau (dimer lifetime, 1/k-1) with endo-Gly0-gramicidin C [1] and with endo-Gly0-gramicidin C [2] were 862 ms and 410 ms, respectively.
